The assay concerns the target T1, human non-muscular myosin heavy chain type A (human, UniProt P35579 2-1960).
T1 construct: also called nmMHCA; human non-muscular myosin A chain
Kind of assay: flow cytometry, FITC-labeled antibody at 20 ug/ml on intact MKN45 cells, mean channel number of FL1. As for the experimental part:
Cultured cells of MKN45 or cells of a solid tumor (hereinafter referred to as “tumor cells”) formed by subcutaneous transplantation of MKN45 were allowed to react with the GAH antibody described in EP-A-520499 and EP-A-1174126, which had been labeled with fluorescein isothiocyanate (FITC: Sigma), in a concentration of 20 μg/ml at 4° C. for 1 hour, and then washed once with phosphate buffered saline (PBS). Analysis was carried out in PBS containing propidium iodide (PI: Sigma) using a flow cytometer (FACScan: Becton Dickinson). PI-positive cells, namely dead cells, were excluded from the subject of analysis by gating operation. By calculating the mean channel number of FL1 as an index of FITC fluorescence intensity, comparison of the cultured cells and tumor cells of MKN45 was carried out.

T1 sequence (P35579 2-1960 limits assumed): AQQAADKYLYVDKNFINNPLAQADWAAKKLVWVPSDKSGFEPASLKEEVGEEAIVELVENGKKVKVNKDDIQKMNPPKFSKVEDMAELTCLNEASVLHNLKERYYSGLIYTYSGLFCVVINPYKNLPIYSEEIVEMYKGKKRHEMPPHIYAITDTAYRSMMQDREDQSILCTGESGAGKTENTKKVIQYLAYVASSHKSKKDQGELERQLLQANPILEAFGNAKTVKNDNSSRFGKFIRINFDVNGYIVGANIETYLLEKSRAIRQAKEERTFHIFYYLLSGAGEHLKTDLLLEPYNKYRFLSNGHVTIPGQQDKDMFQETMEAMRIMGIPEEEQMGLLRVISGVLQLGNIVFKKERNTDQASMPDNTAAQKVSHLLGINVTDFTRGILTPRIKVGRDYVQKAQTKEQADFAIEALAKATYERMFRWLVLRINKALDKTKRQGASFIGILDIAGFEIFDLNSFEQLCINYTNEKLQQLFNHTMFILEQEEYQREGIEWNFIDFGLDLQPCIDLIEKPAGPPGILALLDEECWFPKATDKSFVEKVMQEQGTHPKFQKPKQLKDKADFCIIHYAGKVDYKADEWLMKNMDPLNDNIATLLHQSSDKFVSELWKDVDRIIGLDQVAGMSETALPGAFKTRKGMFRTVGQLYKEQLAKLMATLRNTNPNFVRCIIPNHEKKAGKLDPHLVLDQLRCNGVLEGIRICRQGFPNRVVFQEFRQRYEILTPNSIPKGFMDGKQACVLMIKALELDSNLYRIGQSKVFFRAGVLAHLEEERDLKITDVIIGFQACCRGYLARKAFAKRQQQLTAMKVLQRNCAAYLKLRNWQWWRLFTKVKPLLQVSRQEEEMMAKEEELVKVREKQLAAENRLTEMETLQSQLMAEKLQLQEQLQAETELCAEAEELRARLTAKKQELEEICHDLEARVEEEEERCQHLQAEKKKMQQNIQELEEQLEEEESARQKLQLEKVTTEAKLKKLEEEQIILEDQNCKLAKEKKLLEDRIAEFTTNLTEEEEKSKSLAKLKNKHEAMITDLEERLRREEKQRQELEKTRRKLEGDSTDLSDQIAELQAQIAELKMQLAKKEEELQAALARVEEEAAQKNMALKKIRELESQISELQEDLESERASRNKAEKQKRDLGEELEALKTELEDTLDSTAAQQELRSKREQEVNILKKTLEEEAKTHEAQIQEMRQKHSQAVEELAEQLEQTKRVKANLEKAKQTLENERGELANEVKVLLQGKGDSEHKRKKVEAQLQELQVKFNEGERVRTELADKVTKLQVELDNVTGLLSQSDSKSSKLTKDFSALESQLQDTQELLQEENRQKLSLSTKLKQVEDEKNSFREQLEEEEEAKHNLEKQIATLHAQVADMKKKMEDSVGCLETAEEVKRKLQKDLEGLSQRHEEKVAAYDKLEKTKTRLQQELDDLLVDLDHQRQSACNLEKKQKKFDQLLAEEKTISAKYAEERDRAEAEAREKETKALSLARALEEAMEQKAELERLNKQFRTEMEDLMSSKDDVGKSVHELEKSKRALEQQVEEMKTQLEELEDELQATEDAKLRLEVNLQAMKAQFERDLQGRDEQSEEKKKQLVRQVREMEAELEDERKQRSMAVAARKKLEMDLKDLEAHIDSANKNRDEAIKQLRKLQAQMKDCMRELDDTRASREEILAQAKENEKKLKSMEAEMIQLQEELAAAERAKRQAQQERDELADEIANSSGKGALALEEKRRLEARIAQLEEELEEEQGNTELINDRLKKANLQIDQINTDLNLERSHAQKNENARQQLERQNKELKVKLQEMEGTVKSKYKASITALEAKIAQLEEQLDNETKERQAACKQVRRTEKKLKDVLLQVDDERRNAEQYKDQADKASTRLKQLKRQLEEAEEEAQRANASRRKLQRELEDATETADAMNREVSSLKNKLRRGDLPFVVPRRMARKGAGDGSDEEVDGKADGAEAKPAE

B1: GAH antibody (human monoclonal antibody disclosed in EP-A-520499) (antibody, V domains shown)
VH: QVQLQESGPGLVKPSQTLSLTCTVSGGSISSCGFYWNWIRQHPGKGLEWIGYIYYSGSTYYNPSLKSRVTISLDTSKSQFSLKLSSLTAADTAVYYCARSTRLRGADYWGQGTMVTVSS
VL: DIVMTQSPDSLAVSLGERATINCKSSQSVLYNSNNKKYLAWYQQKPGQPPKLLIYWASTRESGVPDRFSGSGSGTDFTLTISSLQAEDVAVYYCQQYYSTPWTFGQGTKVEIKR
With B1, the “fold reactivity, tumor cells against cultured cells of MKN45” value is approximately 18 times.
